From article PMC7318843 (Neuron, 2020)

Target: biotin-labeled Aβ40 (UniProt P05067 672-711, biotin (position not given))
Assay: pull-down

- binding result: binds
B1: MDK protein (Midkine), human recombinant (natural protein, UniProt P21741 21-143, looked up)
chain: VAKKKDKVKKGGPGSECAEWAWGPCTPSSKDCGVGFREGTCGAQTQRIRCRVPCNWKKEFGADCKYKFENWGACDGGTGTKVRQGTLKKARYNAQCQETIRVTKPCTPKTKAKAKAKKGKGKD
